This note sets out measurements from publication PMC8548084, “The role of DDK and Treslin–MTBP in coordinating replication licensing and pre-initiation complex formation” (Open Biology, 2021).

The target in this assay is T1, MTBP (Mdm2 Binding Protein), Xenopus (Xenopus laevis (endogenous in egg …, UniProt Q6NRW0 1-860)).
T1 construct: MTBP of Xenopus laevis, endogenous in egg extract; 96 kDa as printed; Printed N-terminal 125 residues (antigen MTBP-2): [residues removed]
T1 sequence (looked up): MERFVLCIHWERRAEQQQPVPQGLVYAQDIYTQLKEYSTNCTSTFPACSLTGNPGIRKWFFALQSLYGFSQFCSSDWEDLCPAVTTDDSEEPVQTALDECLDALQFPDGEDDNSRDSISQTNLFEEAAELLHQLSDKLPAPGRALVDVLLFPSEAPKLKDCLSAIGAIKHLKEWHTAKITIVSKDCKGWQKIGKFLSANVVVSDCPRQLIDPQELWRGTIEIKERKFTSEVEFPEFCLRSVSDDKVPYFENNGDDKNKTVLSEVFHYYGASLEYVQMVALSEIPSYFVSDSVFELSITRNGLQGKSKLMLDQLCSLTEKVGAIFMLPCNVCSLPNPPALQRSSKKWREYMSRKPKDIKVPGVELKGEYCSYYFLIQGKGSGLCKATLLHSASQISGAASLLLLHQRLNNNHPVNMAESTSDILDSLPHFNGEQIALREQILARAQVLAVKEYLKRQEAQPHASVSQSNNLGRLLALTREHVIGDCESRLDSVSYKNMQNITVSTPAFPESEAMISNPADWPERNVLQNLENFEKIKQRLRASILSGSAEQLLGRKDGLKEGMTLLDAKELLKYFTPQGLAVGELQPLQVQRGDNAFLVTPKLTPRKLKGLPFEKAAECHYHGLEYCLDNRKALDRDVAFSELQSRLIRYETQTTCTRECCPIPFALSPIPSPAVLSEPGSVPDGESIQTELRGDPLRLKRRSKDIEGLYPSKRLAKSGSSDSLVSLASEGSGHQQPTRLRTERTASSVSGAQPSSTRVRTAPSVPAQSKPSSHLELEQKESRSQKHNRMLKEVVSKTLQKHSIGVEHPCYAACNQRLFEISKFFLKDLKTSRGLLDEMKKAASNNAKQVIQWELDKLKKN
Nature of the assay: SEC + other: sucrose gradient centrifugation; 3% PEG-precipitated proteins of Xenopus egg extract in LFB1/50; Agilent BIO SEC-5 column at 4°C and 5-40% sucrose gradient; fractions immunoblotted for MTBP and Treslin; native mass by the Siegel and Monty equation. Particulars: partners not purified.

B1: Treslin/Ticrr, Xenopus (natural protein, UniProt D3IUT5 1-1985, looked up)
chain: MAPSHNVVLLVDTAESSDKSRLRRVSLRLLNFLACRAGLGQVRWSYRFLNSSGGRCRPPRRSDLRELGPRGWEEFEDELEACWERARNCRPSSTQSSRAQLLQTALMETLADFQWDRPDITSPTKPTLLRSRRGRIVAADEPLKDDSPDNFINPHSRNSIFLLSSCPHSGTELGQFAATSGDFSTQKVMDKLLPKSLQKIVSSKRVRVYWLDTSDWTQFGSSSDHSGYWTMVELMHQVEGRILPSESILGSSCQKAKTLPSFSVPPINIPFESVLNYLIFSEPDYQLWFPRRDGILFLTGKDGTKQLDCAVSLEPVSMIQKLSTSLMTIELKGTMQNCNLPLAGLRVETWLLHNSDCVQLQKLTKELMLKELHMIATVTLEDDVLPRTGILSPLSETAAVLNVICSERTLGLDNLHVQGSVHETDKETFSDLPDIVMSVLNHVYSSEDNTLAPDFPVPEWIKQELSQSSRWTSSVTARWYPLSGVSGASCNLMESFRLINAASSNCDEHLKFDQELTNYLSEFYQKKSVDDAGLGVHRENQKKSGLPRTPVRQKMKTLPRALQMLNAARLNVKAQKADSTLPVPNEKNSQMKRRSSGKQDNKPKQLKPTEFQSEDGLISYIKENYEEAVSLVDHSTMTWARDTLTTIKSYLKSIGSEQIETEAIDKVKLLFKTSKVIRQNYRNNQDKEVKLKECQLQVFLRLEMFVQCPVIQMDSDELELIIEEITDILRIVSLTEDPLFLTKFLEVDVLTQYIASVPKILADIYFSLGTQIPEVLVLVLPSDGDDSIMHEEKSVKSQPSTSRVPSVAPIGAETDQLEDLRTRSAKKRRSTALARHRSVAESSQSFRQIEVPKRQPNKENVQSNAVVVLEKLKLPLPAQPQKDAEAKVRRNLFIQETRSPSKRCSKMPRSQSVSAVESLKRKRSKSHDGSKDHHKLLTKKVSETPVHKQTANRLLLRQIKGRPSESNSNISIVEESPEKEIRDIDLRRSPRIKQLSLTRRNSSSFYASQPKSRNLERVNSATQLQQSRERPGSCLISEVKTPKRLLFGEVLGMISPPTTKRSRRILDMVNPVYKTPGKTPRKTPSKNIPNFEDQSGNMLVKSPCTPYTPRTPSRTPKRLKTPSKGSTERKKAAKNLGKLFSPSKPEEKSPLKLWGRRSERLAQMTPGKDGSPYKQSVCQTLMEVKTPQKLQRLESKDFRTPSRTPTRSNNTTPAKQSMQISNTPRKSDLKHPQEHESRGPSGYILWTPQKRILASVPHTPILQTPQKPISASVPRTPVCRTPQKAILSSVPSTPVCQTPNKAILTSVSRTPVYQTPQKAILASVMSTPVYQTPQKPVLASVPTTPILKTPQRSALASVSHTPSPKKYIMKELTVAITRMRECTPEKVLGSNLSSSATPSSALKSFCSEKTTSVCQTPKKSSIALLKPCDSLEFSGAPERLMDSLCSNKDSTKAETACTVPSQISTQMQNVINAGECTDSLSQTSVSSPSIPFTDKSLSPDLKDALSDVTSSKAEGVTIVSEKLDSSSMDSQEATDSFINSSQTEESIDISEARVVSTEASELKMKVLITRKPSGSGVSYLPTTPKCLGNVCSTSTYGLRCTPDRRQREAAARLGTPEIPAKFSTPKSHCKMIPQSIYEVELEMQESGLPKLRFKRTDSNSTIDMDVNKTPKISRKRKGDESPFNEKWCSKHAVRTEPACVSPSCVRTSHYTPGKSGIQTFICQSYTPNRCLSAAASPSQSDAGVPWTPSPKEKLSTDVINSWPRKKKASALCTNLLKCDKIPEYAEEDGGDFELEGVSKLLEKSPVIEQQSKVDGGTFGLRSRKRVFSLVSPTKETENPVKRVCTFNRHEDSSTATHRHQTKEEMEIFSSDQSRSSYLSSSQQSICDDVFNMSDFTPPSKVPKNPLSACGLLTLTQSPLLYKGKTPSSKRKEKIQDVFSDGDSDHGTPTLKRPTNPAAVSDDSPFRKVNPLRSISKTYSRKKLIT
notes: Treslin (Ticrr) of Xenopus laevis, endogenous in egg extract; 220 kDa as printed; no sites are mapped
In the case of B1, the “stoichiometry N” value was 2 molecules of Treslin with 2 molecules of MTBP.
